Patent US5861498A, “Nucleotides encoding immunophilin FKBP46 and fragments thereof” (Thomas Jefferson University, priority 1996, dated 1999)
Blank lines part the entries; values can stand above or below the molecule they belong to.

How the values were obtained:
[1] = tested on: N-succinyl-Ala-Leu-Pro-Phe-p-nitroanilide; details: literature value for comparison (ref 19); cited from earlier work
[2] = biological target: T1, FKBP46 (Spodoptera frugiperda, UniProt Q26486); test: [3H]Dihydro-FK506 binding assay, His-FKBP46 immobilized on Ni2+ affinity resin; parameters: species or system Sf9 insect cell
T1 construct: Nuclear extract containing full-length FKBP46; made in house
T1 sequence (Q26486 1-412): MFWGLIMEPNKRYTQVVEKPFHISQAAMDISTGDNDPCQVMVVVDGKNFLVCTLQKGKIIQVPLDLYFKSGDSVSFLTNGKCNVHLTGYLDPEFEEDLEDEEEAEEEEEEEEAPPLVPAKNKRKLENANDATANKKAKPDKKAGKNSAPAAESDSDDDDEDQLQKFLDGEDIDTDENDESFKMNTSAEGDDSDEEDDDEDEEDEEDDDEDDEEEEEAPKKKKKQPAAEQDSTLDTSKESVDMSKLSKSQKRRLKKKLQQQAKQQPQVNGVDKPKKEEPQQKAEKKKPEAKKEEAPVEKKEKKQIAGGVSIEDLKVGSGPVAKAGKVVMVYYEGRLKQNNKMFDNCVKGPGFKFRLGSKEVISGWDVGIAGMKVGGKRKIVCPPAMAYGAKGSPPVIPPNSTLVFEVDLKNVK
Experimental: (§1) FIGS. 3A and 3B show FK506 binding and Peptidylprolyl cis-trans isomerase activities of FKBP46. In FIG. 3A, purified His-FKBP46 immobilized on Ni^2+ affinity resin was incubated with [^3 H]dihydro-FK506 in the presence […] or absence of cold FK506. The numbers under each column represent different amounts of nuclear extracts in microliters from Sf9 cells--expressing His-FKBP46 bound to separate Ni^2+ affinity resins. Nuclear extracts from wild type (WT) baculovirus infected Sf9 cells (10 μl) were bound to Ni^2+ affinity resin and used as a control. The amount of radioactivity associated with each resin sample is represented in disintegrations/min. In FIG. 3B, time-dependant release of p-nitroanilide by chymotrypsin from trans N-succinyl-Ala-Leu-Pro-Phe-p-nitroanilide measured by absorbance at 400 nm. Curve A reflects the rate of release of p-nitroanilide in a reaction catalyzed by FKBP46. Curve B is the same as curve A but in the presence of 5 μM FK506. Curve C is the same but without FKBP46. […]
(§2) The radioactivity associated with FKBP46 was measured by scintillation counting. […] Chymotrypsin hydrolyzes the trans form to generate p-nitroanilide, which can be quantitated spectrophotometrically at 400 nm. […] From these curves, the specific activity of FKBP46 was calculated using the first order rate constant (S^-1), and the molar concentration of FKBP46 to be about 7.8×10^6 […]. […]

[3] = biological target: T1, FKBP46; test: Peptidylprolyl cis-trans isomerase assay, inhibition by FK506; type: biochemical, Sf9 insect cell; details: 5 μM FK506, 100 nM His-FKBP46, 15° C.; FIG. 3B curve B
Experimental: as §1, with “nm.” for “nm. Curve A reflects the rate of release of p-nitroanilide in a reaction catalyzed by FKBP46. Curve B is the same as curve A but in the presence of 5 μM FK506. Curve C is the same but without FKBP46.”
Peptidylprolyl cis-trans Isomerase Assay--Peptidylprolyl isomerase activity of FKBP46 was assayed as described previously (Harrison, R. K., and Stein, R. L. (1990) Biochemistry 29, 3813-3816 and Park, S. T., et al. (1992) J. Biol. Chem. 267, 3316-3324) with some modifications. […] The reaction was started by the addition of chymotrypsin (100 μg/ml final) (Sigma), and the release of p-nitroanilide by chymotrypsin was measured by recording the increase in absorbance at 400 nm using a Perkin Elmer λ 3B spectrophotometer connected to a chart recorder. […]

[4] = biological target: N-succinyl-Ala-Leu-Pro-Phe-p-nitroanilide
[5] = tested on: N-succinyl-Ala-Leu-Pro-Phe-p-nitroanilide; test: Peptidylprolyl cis-trans isomerase assay, specific activity of the immunophilin; type: biochemical; details: His-FKBP46 100 nM, substrate 75 μM, 15° C.
Experimental: Peptidylprolyl cis-trans Isomerase Assay--Peptidylprolyl isomerase activity of FKBP46 was assayed as described previously (Harrison, R. K., and Stein, R. L. (1990) Biochemistry 29, 3813-3816 and Park, S. T., et al. (1992) J. Biol. Chem. 267, 3316-3324) with some modifications. His-FKBP46 (100 nM final) was incubated with the peptide substrate N-succinyl-Ala-Leu-Pro-Phe-p-nitroanilide (75 μM final) (Bachem, Switzerland) at 15° C. for 15 min. The reaction was started by the addition of chymotrypsin (100 μg/ml final) (Sigma), and the release of p-nitroanilide by chymotrypsin was measured by recording the increase in absorbance at 400 nm using a Perkin Elmer λ 3B spectrophotometer connected to a chart recorder.
as §2, with “counting. […] Under these conditions, maximal binding was obtained when 10 μl of nuclear extracts containing recombinant His-FKBP46 were immobilized on Ni^2+ affinity resin (FIG. 3A, column 6).” for “counting.”

Molecule: hFKBP12: human FK binding protein FKBP12, comparison immunophilin
specific activity [1]: about 4.3×10^6 s^-1. M^-1

Molecule: C=CC[C@@H]1/C=C(\C)C[C@H](C)C[C@H](OC)[C@H]2O[C@@](O)(C(=O)C(=O)N3CCCC[C@H]3C(=O)O[C@H](/C(C)=C/[C@@H]3CC[C@@H](O)[C@H](OC)C3)[C@H](C)[C@@H](O)CC1=O)[C@H](C)C[C@@H]2OC [FK506]
[3H]dihydro-FK506 binding to FKBP46 in the presence of excess cold FK506 ([2]; 5000-fold excess of cold FK506, comparable with mock purified wild type extract, FIG. 3A columns 3, 5, 7): minimal
inhibition at 5 µM [3]: ~50%

peptidylprolyl cis-trans isomerase activity (chymotrypsin-coupled release of p-nitroanilide, absorbance at 400 nm) [4]: 7.8e+06 s⁻¹ M⁻¹
Molecule: recombinant His-FKBP46

Molecule: [3H]CC([3H])C[C@@H]1/C=C(\C)C[C@H](C)C[C@H](OC)[C@H]2O[C@@](O)(C(=O)C(=O)N3CCCC[C@H]3C(=O)O[C@H](/C(C)=C/[C@@H]3CC[C@@H](O)[C@H](OC)C3)[C@H](C)[C@@H](O)CC1=O)[C@H](C)C[C@@H]2OC (stereo partly drawn) [[^3 H]dihydro-FK506]
[3H]dihydro-FK506 binding to FKBP46 (radioactivity associated with resin) ([2]; 50 nM [3H]dihydro-FK506, on ice 18 h, absence of cold FK506, FIG. 3A): can bind specifically to FKBP46 in a dose-dependent manner

B1: FKBP46: novel Sf9 insect cell nuclear immunophilin, SEQ ID NO:2; tested as recombinant His-tagged protein (protein)
chain: T1 sequence (Q26486 1-412)
modifications: His tag
notes: tested as recombinant His-tagged protein
specific activity (first order rate constant / molar concentration) [5]: about 7.8×10^6 s^-1. M^-1
